Columns and labels:
[1] = target: T1, recombinant protein mouse Dsg1-His (mouse, UniProt Q61495 50-564, limits assumed); test: ELISA on recombinant mouse Dsg1-His
T1 construct: not shown: His tag
T1 sequence (looked up): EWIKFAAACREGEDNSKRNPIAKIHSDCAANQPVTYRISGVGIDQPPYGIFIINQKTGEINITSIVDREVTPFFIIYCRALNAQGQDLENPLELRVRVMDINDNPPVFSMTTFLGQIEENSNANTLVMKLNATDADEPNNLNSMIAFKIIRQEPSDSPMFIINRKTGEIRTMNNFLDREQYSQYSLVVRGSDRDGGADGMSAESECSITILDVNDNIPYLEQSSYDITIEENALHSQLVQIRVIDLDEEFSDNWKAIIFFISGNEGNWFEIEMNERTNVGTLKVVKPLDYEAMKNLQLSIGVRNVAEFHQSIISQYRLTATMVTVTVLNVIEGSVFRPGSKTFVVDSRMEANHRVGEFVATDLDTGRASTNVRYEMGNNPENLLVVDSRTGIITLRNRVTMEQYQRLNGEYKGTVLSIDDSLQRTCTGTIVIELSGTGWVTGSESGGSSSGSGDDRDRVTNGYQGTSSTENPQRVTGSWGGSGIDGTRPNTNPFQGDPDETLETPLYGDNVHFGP
Source text: (§1) The baculovirus vectors, pEVmod-Dsg3-His and pEVmod-Dsg1-His, pEVmod-mouse Dsg3-His and pEVmod-mouse Dsg1 -His, that were constructed according to the method as described previously (J. Immunol. 159, 2010-2017, 1997) were used. These recombinant baculoviruses were infected to insect cells, High Five (Invitrogen Corporation), then the recombinant protein human Dsg3-His and Dsg1-His, recombinant protein mouse Dsg3-His and Dsg1-His were collected from the culture media, respectively. In addition, purification of these recombinant proteins was conducted using Ni-NTA column. These purified recombinant proteins were coated on ELISA (Enzyme Linked Immunosorbent Assay) plates, respectively, 50 μl each of the culture supernatant of the anti-Dsg3 monoclonal antibody-producing hybridoma was added to each well, and ELISA was practiced according to the method as previously described (J Clin Invest 105, 625-631, 2000). PV mouse model 1 serum with moderate degree of antibody titer was selected as a positive control, and 1 serum of normal mouse serum was selected as a negative control. Absorbance was determined at wavelength 450 nm (Bio-rad, Hercules, Calif. USA), and the index was shown by the following formula. Index={OD(specimen)−OD(negative control)}/{OD(positive control)−OD(negative control)}×100 A-2 (Living Cell Staining using Culture Mouse Keratinocyte PAM 212)

[2] = target: T2, human Dsg3 in human skin or mucosa (human, UniProt P32926 50-999); test: indirect immunofluorescence on human skin sections
T2 construct: whole, on cells; also called human tissues
T2 sequence (looked up): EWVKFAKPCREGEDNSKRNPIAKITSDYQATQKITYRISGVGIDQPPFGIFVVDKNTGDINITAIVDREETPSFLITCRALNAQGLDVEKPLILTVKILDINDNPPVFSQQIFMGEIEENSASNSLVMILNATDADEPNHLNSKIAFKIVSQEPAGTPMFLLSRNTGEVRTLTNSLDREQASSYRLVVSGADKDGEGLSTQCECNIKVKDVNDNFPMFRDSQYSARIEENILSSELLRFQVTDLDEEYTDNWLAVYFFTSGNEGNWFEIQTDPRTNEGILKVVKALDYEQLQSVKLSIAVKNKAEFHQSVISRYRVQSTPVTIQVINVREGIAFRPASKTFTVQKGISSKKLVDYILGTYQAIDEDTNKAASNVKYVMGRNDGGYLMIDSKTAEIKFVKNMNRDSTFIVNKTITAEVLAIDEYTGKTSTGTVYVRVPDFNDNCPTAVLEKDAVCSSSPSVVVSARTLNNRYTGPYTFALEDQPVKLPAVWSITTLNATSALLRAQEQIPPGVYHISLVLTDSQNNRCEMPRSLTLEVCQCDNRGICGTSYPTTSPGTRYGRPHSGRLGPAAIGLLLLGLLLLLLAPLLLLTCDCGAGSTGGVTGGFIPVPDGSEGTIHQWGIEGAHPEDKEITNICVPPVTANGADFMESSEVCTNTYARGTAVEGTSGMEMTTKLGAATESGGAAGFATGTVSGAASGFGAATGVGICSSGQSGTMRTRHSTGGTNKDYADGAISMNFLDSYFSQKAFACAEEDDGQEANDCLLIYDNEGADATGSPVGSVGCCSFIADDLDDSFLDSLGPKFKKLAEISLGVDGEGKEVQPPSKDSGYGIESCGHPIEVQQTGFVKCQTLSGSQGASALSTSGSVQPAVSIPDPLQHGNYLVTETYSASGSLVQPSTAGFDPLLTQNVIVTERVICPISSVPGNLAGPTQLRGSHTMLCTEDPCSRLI
Procedure: A-5 (Indirect Immunofluorescence) C57B1/6J mouse hard palate, liver and human skin were embedded with OCT compound (SAKURA, USA), then froze and sectioned into 5 μm thickness, and constructed a substrate. After each of hybridoma culture supernatants were reacted for 1 hour at room temperature, they were washed with PBS (3 times), and reacted with ×100 diluted FITC labeled goat anti-mouse IgG (DAKO A/S, Glostrup, Denmark) for 1 hour at room temperature, they were washed with PBS (3 times), and microscopic examination was conducted using a fluorescence microscope.

[3] = target: T3, recombinant protein human Dsg1-His (human, UniProt Q02413 50-548); test: ELISA on recombinant human Dsg1-His
T3 construct: extracellular domain; Baculovirus product; not shown: C-terminal His tag
T3 sequence (looked up): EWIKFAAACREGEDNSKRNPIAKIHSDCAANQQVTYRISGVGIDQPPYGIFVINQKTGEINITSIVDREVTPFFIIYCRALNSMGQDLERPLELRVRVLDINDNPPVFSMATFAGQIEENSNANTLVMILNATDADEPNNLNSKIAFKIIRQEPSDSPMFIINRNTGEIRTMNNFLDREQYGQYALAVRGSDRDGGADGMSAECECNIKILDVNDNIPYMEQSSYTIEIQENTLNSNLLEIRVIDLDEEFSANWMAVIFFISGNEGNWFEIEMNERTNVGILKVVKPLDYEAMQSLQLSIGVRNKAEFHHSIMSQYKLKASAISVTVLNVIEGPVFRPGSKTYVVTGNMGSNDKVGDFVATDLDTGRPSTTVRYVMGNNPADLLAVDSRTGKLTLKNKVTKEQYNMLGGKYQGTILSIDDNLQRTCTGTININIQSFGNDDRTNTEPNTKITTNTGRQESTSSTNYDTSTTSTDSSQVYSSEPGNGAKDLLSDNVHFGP
Source text: as §1

- binding result [1]: no binding
- binding result [2]: binds
- binding result [3]: no binding
B1: anti-Dsg3 monoclonal antibody AK23 (antibody, mouse IgG1, V domains shown)
VH: QVQLQQSGTELVKPGASVKLSCKSSGYTFTSYWINWVKQRPGQGLEWIGNINPSNGGINYNEKFKSKATLTVDKSSSTAYMQLKSLTSEDSAVYYCARGGYDGYPWGQGTTVTVS
VL: DIQMTQSPKFLLVSAGDRVTITCKASQSVSYDVAWYQQKPGQSPKLLISYASNRYTGVPDRFTGSGYGSDFTFTISTVQTEDLAVYFCQQDYSSPWTFGGGTKLELKR
notes: Mouse IgG1 kappa hybridoma antibody

Source: patent publication US20050025760A1 (KEIO UNIVERSITY, published 2005)
